Source: patent US20140357845A1

Target: miniHA (A/Brisbane/59/2007) (influenza A virus H1N1), A8C8J4
Experiment: FACS
Conditions: remark: other sources report otherwise

B1: CR6261 (antibody, V domains shown)
VH: EVQLVESGAEVKKPGSSVKVSCKASGGPFRSYAISWVRQAPGQGPEWMGGIIPIFGTTKYAPKFQGRVTITADDFAGTVYMELSSLRSEDTAMYYCAKHMGYQVRETMDVWGKGTTVTVSS
VL: QSVLTQPPSVSAAPGQKVTISCSGSSSNIGNDYVSWYQQLPGTAPKLLIYDNNKRPSGIPDRFSGSKSGTSATLGITGLQTGDEANYYCATWDRRPTAYVVFGGGTKLTVLG
  % positive cells: 1 to 3%
